Source: patent US9175077B2, “Nucleic acids encoding biologically active polypeptides derived from a novel early stage pregnancy factor designated maternin (MA)” (NOBEL BIOSCIENCES LLC, priority 1999, dated 2015)
Where two headings read alike, the source gives them in different places.

Key:
[1] = tested on: human carcinoma and sarcoma cells (PC3, KS Y-1); assay: Xenotransplanted human tumors in immunodeficient mice; format: in vivo; details: controls at equivalent and higher molar concentrations
Method: In the first set of experiments, MA was tested against tumors formed by xenotransplantation of various human carcinoma and sarcoma cells in immunodeficient mice. […] […] Three different synthetic forms of MA were used: full length (MAS3) and the previously described MAS1 and MAS2 (Panel C).

[2] = Summary of active and inactive peptides / overall biological activities
[3] = biological target: T1, hCG receptor (Homo sapiens, UniProt P22888); details: cited from earlier work
T1 construct: host or cells: unspecified cells

[4] = tested on: HIV-1 gene expression; assay: HIV-1 transgenic mice, pups feeding from treated mothers; format: in vivo; details: mouse, in vivo
Excerpt: The transgenic mice contain 5.1 kb of the HIV-1 proviral genome, lacking gag and pol genes and 2.3 kb of vector.^172 The newly developed transgenic rat contains the same HIV-1 sequences and vector.
Twenty-four hours after birth the mothers were either inoculated subcutaneously daily for 10 days or received an implanted osmotic pump delivering 30-150 pmoles of either native or synthetic MA or pMA. Various control polypeptides were used at equimolar or vast molar excess. The newborn pups were then allowed to feed from the foster mother breast milk over the entire period. Since the animals are at risk from needle inoculation, breastfeeding was the chosen route for MA administration.
In these experiments total RNA was extracted from samples of skin RNA206 10 days after birth of MA treated and untreated mice. One ug of RNA was reverse transcribed into cDNA using random hexamer primer and […] reverse transcriptase (Life Technologies, Inc.) in a final vol. Of 30 ul. Three ul of each reaction was used for PCR amplification of the HIV-1 gene sequences (env, tat, nef, and rev) as described […], and glyceraldehyde 3-phosphate dehydrogenase (GAPDH) was amplified from each sample for normalization. After 25 cycles, 10% of the products were resolved by electrophoresis on 2% agarose gels, transferred to nitrocellulose membranes by Southern blotting, and hybridized to fluorescein isthiocyanate-labeled oligonucleotide probes complementary to internal sequences of the amplicons […]. Bound probes were detected by chemiluminescence (Amersham) and relative mRNA levels determined by densitrometry after normalization with GAPDH mRNA levels.

[5] = tested on: human tumor cells; format: cell-based; details: controls at equimolar or 5 to 10× greater concentrations
Method: The anti-tumor activities of MA were assessed in several in vitro and in vivo systems using published methods.^166 In vitro studies were with a wide variety of human tumor cell lines as well as short-term cultures of cells from biopsy samples obtained from tumors. The assays included effects of MA on colony formation, cell number and viability (trypan blue), and apoptosis. Four measures of microscopy were used. In vivo studies included the effects of MA on tumors induced in immunodeficient mice by xenotransplanted various human neoplastic cells, spontaneous neoplasms of immuno-competent mice and rats, and a few standard tumors in immuno-competent mice. Representative examples are presented.
Cells (5×10^5/ml) were seeded in modified Eagle's medium supplemented with 10% FCS, 10% conditioned medium form PHA stimulated human lymphocytes, 2 mM glutamine in 0.8% V/V methylcellulose with or without various treatments in a final volume of 1.0 ml. Then 0.1 ml aliquots were seeded in 96 well flat bottom microtest plates and incubated at 37° C. in 5% CO2 in air for 7 days. Aggregates containing 50 cells or more were scored as colonies.
5×10^5 cells were seeded in triplicate on 24 gelatin coated wells in conditions as described for Panel A and treated with the indicated test materials. After 3 days the cells were dislodged from their monolayers by gentle pipetting with cell dissociation buffer (Life Technologies), counted after trypan blue staining and aliquots examined for Annexin V staining by indirect IFA […].
Studies of the anti-tumor cell effects of MA were extended to other carcinomas, melanoma, some hematopoietic tumors, and carcinomas of the colon, prostate, breast, lung, brain, pancreas, and kidney-using cell lines from these tumors. […] Many more types of tumor cells were studied utilizing other assays (see below).

[6] = tested on: hematopoietic progenitors (CFU-GEMM, BFU-e, CFU-GM, T-CFC); assay: Hematopoietic colony formation assays; format: cell-based, human
Excerpt: Hematopoietic colony formation assays with bone marrow or cord blood of normal human volunteers and bone marrow of monkeys, rats, and mice were utilized. The assays are conventional measurements of the number of progenitors for erythrocytes, granulocytes, macrophages, platelets, and T-cells. The culture conditions included growth factors that would give near optimum growth for the particular lineage. These factors included II-3, PHA-lymphocyte conditioned medium, erythropoietin (EPO), II-6, and GM-CSF. The number of colonies developing in methylcellulose reflects the number of progenitor cells, and the percent increase is a measure of the effect of different polypeptides to increase colony number above the maximum obtained with the indicated known growth factors.
The latter is a less conventional assay, and details on the methods involved are described elsewhere.^178

[7] = Lethal dose taxol in Sprague-Dawley rats; format: in vivo; details: even at high doses
Method: Sprague-Dawley rats were given taxol in large lethal doses, 4.5 mg in one I.P. inoculation. […] Bone marrow suppression can also be a side effect of the clinical use of taxol.^179 As in the radiation experiments, either MA, pMA, MAS1, or various polypeptide controls were given subcutaneously only in two doses 24 and 48 hrs before taxol treatment or were given 3×/week for 4 weeks. […]

[8] = tested on: HIV; details: higher doses increased viral production; cited from earlier work
[9] = tested on: HIV-1; details: controls at similar, equimolar or higher concentrations
Method: Virus (MOI of 0.001) was added to 10^6 cells in RPMI-1640 with 10% FCS. One hour later the various polypeptides were added once. The cells cultured for 3 days with 5 ug PHA and 20 i.m. of II-2/ml at 37°, after which virus was estimated by determining p24 (HIV-1) or p27 (SIV) (Organon-Teknika).
The effect of native and synthetic MA on HIV-1 infection in vitro was evaluated using PHA and II-2 stimulated primary peripheral blood cells (PBMC), CD4+ T-cells enriched fractions from PBMC, and CD14+ macrophage enriched fractions. Infection was with HIV-1 IIIB (PBMC and CD4+ T-cells), HIV-1 Ba-L (macrophages), and two primary HIV-1 isolates not passaged in any cell line (PBMC).

T1 sequence (P22888 27-699): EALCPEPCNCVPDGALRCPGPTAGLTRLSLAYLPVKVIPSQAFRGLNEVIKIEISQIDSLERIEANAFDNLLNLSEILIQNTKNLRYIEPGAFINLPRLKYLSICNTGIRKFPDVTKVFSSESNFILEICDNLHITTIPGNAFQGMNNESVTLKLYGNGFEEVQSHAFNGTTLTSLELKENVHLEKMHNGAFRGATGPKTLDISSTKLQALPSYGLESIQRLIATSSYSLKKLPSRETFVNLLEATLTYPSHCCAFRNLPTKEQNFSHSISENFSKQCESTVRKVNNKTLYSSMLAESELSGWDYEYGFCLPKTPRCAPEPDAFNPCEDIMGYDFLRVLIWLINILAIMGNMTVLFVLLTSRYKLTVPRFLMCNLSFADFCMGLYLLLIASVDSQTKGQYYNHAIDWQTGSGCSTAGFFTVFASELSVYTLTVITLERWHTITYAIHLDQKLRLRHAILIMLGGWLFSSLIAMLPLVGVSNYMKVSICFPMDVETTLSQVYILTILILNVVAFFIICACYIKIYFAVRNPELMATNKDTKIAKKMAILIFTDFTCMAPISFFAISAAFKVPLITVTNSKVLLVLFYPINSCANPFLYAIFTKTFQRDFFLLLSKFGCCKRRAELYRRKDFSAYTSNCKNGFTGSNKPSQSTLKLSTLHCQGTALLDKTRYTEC

B1: β-hCG: β-chain of human chorionic gonadotropin, AA 1-145 (SEQ ID NO: 1) (protein, listed as Homo sapiens)
chain: SKEPLRPRCRPINATLAVEKEGCPVCITVNTTICAGYCPTMTRVLQGVLPALPQVVCNYRDVRFESIRLPGCPRGVNPVVSYAVALSCQCALCRRSTTDCGGPKDHPLTCDDPRFQDSSSSKAPPPSLPSPSRLPGPSDTPILPQ
Q: With B1 as the molecule, how does the “effect on xenotransplanted tumor (qualitative)” value [1] read?
A: The value was “no effect”.

Q: And the “biological activities in vitro or in vivo in the experimental systems described” value [2]?
A: The value was “no activity”.

Q: And the “binding to the hCG receptor” value [3]?
A: Its value is “neither β-hCG or any of its degradation products significantly bind”.

Q: And the “HIV-1 viral expression in tissues” value [4]?
A: Its value is “high expression”.

Q: And the “mice dead by day 10” value [4]?
A: The value was 10 of 10.

Q: What about the “inhibition of growth / induction of apoptosis of neoplastic cells” value [5] of the same molecule?
A: Its value is “no inhibition of growth or induction of apoptosis”.

Q: And the “hematopoietic effects in vivo and in vitro” value [6]?
A: Its value is “None”.

Q: What about the “effect on colony number (qualitative)” value ([6]; equimolar or higher concentrations) of the same molecule?
A: The value was “no significant effect above background”.

Q: And the “effect on survival (qualitative)” value [7]?
A: Its value is “no effect”.

Q: What about the “doses reducing HIV production in monocytes” value [8] of the same molecule?
A: Its value is ≤ 10 µg/mL.

Q: And the “inhibition of HIV replication (qualitative)” value [9]?
A: The value was “No inhibition”.

Q: What about the “inhibition of HIV replication (qualitative)” value ([9]; listed as rβ-hCG) of the same molecule?
A: Its value is “no effect”.
